A word on the Kd: it is the concentration at which binding is half-saturated.

For 1 molecule, Kd results are on record in publication PMC9130146, “Alteration in DNA-binding affinity of Wilms tumor 1 protein due to WT1 genetic variants associated with steroid - resistant nephrotic syndrome in children”.

What all share (assay): MST; 50 mM Na2HPO4.12H2O, 150 mM NaCl, 0.005% Tween; pH not stated; room temperature; 80 nM DNA; protein from 1-4 mM (highest) downward
One series addresses WT1 ZF2-4 p.His450Arg (Homo sapiens (cDNA from A549 cells), UniProt P19544-2 334-423, H360R). Conditions: protein: recombinant; tags: no tag stated; label: 5' Cyanine5; single strand.
The target of series [1] is WT1 ZF2-4 wild type (-KTS) (Homo sapiens (cDNA from A549 cells), UniProt P19544-2 334-423). Conditions: protein: recombinant; tags: no tag stated; pET22b, reverse primer has a stop codon; label: 5' Cyanine5; single strand.
Sequence of WT1 ZF2-4 wild type (-KTS) (P19544 other isoform, or with tags, fused parts or gaps): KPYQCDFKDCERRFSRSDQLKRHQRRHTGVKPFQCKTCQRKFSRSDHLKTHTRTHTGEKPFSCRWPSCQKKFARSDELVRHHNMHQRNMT
The target of a further series is WT1 ZF2-4 p.His474Arg (Homo sapiens (cDNA from A549 cells), UniProt P19544-2 334-423, H384R). The following applies: protein: recombinant; tags: no tag stated; label: 5' Cyanine5; single strand.
Sequence of WT1 ZF2-4 p.His474Arg (P19544 other isoform, or with tags, fused parts or gaps H384R | p.H474R p.H474R): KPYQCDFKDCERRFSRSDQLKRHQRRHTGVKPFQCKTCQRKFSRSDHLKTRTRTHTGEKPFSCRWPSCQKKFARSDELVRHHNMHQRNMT
The target of the next series is WT1 ZF2-4 p.Arg439Pro (Homo sapiens (cDNA from A549 cells), UniProt P19544-2 334-423, R349P). The following applies: protein: recombinant; tags: no tag stated; label: 5' Cyanine5; single strand.
Sequence of WT1 ZF2-4 p.Arg439Pro (P19544 other isoform, or with tags, fused parts or gaps R349P | p.R439P p.R439P): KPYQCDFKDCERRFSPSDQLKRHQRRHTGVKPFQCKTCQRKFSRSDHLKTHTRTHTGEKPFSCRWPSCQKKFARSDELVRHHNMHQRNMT
The target in another series is WT1 ZF2-4 p.Cys433Tyr (Homo sapiens (cDNA from A549 cells), UniProt P19544-2 334-423, C343Y). Conditions: protein: recombinant; tags: no tag stated; label: 5' Cyanine5; single strand.
Sequence of WT1 ZF2-4 p.Cys433Tyr (P19544 other isoform, or with tags, fused parts or gaps C343Y | p.C433Y p.C433Y): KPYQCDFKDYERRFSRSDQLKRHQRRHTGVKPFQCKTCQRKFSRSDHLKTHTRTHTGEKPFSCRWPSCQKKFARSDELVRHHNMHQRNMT
The next series has as its target WT1 ZF2-4 p.Gln447Pro (Homo sapiens (cDNA from A549 cells), UniProt P19544-2 334-423, Q357P). The following applies: protein: recombinant; tags: no tag stated; label: 5' Cyanine5; single strand.
Another series concerns the target WT1 ZF2-4 p.Arg467Trp (Homo sapiens (cDNA from A549 cells), UniProt P19544-2 334-423, R377W). Conditions: protein: recombinant; tags: no tag stated; label: 5' Cyanine5; single strand.
In another series the target is WT1 ZF2-4 p.Asp469Asn (Homo sapiens (cDNA from A549 cells), UniProt P19544-2 334-423, D379N). Conditions: protein: recombinant; tags: no tag stated; label: 5' Cyanine5; single strand.
Sequence of WT1 ZF2-4 p.Asp469Asn (P19544 other isoform, or with tags, fused parts or gaps D379N | p.D469N p.D469N): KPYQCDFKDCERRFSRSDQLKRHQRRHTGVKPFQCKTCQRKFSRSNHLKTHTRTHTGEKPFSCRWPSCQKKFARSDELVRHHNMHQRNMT
The target in the next series is WT1 ZF2-4 p.Arg463Ter (Homo sapiens (cDNA from A549 cells), UniProt P19544-2 334-372). Conditions: protein: recombinant; tags: no tag stated; label: 5' Cyanine5; single strand.
Sequence of WT1 ZF2-4 p.Arg463Ter (P19544 351-389): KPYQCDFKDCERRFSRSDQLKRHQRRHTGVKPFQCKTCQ

Sequence of WT1 ZF2-4 p.Gln447Pro (P19544 other isoform, or with tags, fused parts or gaps Q357P | p.Q447P p.Q447P): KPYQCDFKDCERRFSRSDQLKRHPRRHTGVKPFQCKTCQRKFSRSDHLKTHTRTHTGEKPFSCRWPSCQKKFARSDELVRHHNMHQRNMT
Sequence of WT1 ZF2-4 p.Arg467Trp (P19544 other isoform, or with tags, fused parts or gaps R377W | p.R467W p.R467W): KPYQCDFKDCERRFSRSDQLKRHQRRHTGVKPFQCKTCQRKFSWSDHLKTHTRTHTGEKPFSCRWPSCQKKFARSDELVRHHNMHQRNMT
Sequence of WT1 ZF2-4 p.His450Arg (P19544 other isoform, or with tags, fused parts or gaps H360R | p.H450R p.H450R): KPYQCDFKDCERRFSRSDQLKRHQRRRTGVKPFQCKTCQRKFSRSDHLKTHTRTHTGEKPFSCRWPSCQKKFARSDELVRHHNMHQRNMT

In the case of GTGGAGGCGGCGGGGGCGGCAGCAACAG (ssDNA) [EGR1 DNA motif, Cy5 oligo], the Kd with WT1 ZF2-4 p.His450Arg was determined as 878 ± 164 µM; in [1], 111 ± 7.4 µM; in the series with WT1 ZF2-4 p.His474Arg, 48.4 ± 6 µM; with WT1 ZF2-4 p.Arg439Pro, 319 ± 72.7 µM; with WT1 ZF2-4 p.Cys433Tyr it was 89.4 ± 7 µM; with WT1 ZF2-4 p.Gln447Pro it was 24.9 ± 4.2 µM. The Kd with WT1 ZF2-4 p.Arg467Trp stood at 94.6 ± 9.8 µM; with WT1 ZF2-4 p.Asp469Asn, 12.1 ± 1.7 µM; in the series with WT1 ZF2-4 p.Arg463Ter, 324 ± 13.3 µM.
